Test system: HCoV-OC43 gRNA and sgRNA
Assay type: binding

B1: G3BP2: host protein of the core SARS-CoV-2 RNA interactome (protein, UniProt Q9UN86 2-482, looked up)
Ras GTPase-activating …: VMEKPSPLLVGREFVRQYYTLLNKAPEYLHRFYGRNSSYVHGGVDASGKPQEAVYGQNDIHHKVLSLNFSECHTKIRHVDAHATLSDGVVVQVMGLLSNSGQPERKFMQTFVLAPEGSVPNKFYVHNDMFRYEDEVFGDSEPELDEESEDEVEEEQEERQPSPEPVQENANSGYYEAHPVTNGIEEPLEESSHEPEPEPESETKTEELKPQVEEKNLEELEEKSTTPPPAEPVSLPQEPPKAFSWASVTSKNLPPSGTVSSSGIPPHVKAPVSQPRVEAKPEVQSQPPRVREQRPRERPGFPPRGPRPGRGDMEQNDSDNRRIIRYPDSHQLFVGNLPHDIDENELKEFFMSFGNVVELRINTKGVGGKLPNFGFVVFDDSEPVQRILIAKPIMFRGEVRLNVEEKKTRAARERETRGGGDDRRDIRRNDRGPGGPRGIVGGGMMRDRDGRGPPPRGGMAQKLGSGRGTGQMEGRFTGQRR
  background (unweighted spectral count, no-probe control): 1
  target (unweighted spectral count): 4
  target (unweighted spectral count, OC43 Probe II capture): 4
  target (unweighted spectral count, OC43 Probe II): 9
